Source: patent US20220195012A1 (NATIONAL CENTRE FOR CELL SCIENCE, published 2022)
Values joined by “and” are separate entries in the source; they are usually repeats but may differ in a detail not shown here. Equal entries are not always repeated.

Legend:
Assay in all cases: cell-based or functional assay
C4b = C4b (UniProt P0C0L4 757-1446; P0C0L4 20-675; P0C0L4 1454-1744, in the SPR assays biotinylated at the free -SH group with EZ-Link PEO-maleimide-activated biotin)
CP C3-convertase (C4b2a) [1] = target: T1, CP C3-convertase (C4b2a) (UniProt P0C0L4 757-1446; P0C0L4 20-675; P0C0L4 1454-1744; P06681 244-752)
C3b = C3b (UniProt P01024 23-667; P01024 749-1663, in the SPR assays biotinylated at the free -SH group with EZ-Link PEO-maleimide-activated biotin)
AP C3-convertase (C3bBb) [2] = target: T2, AP C3-convertase (C3bBb) (UniProt P01024 23-667; P01024 749-1663; P00751 260-764)
AP C3-convertase (C3bBb) [3] = target: T2, AP C3-convertase (C3bBb); remark: listed apart in the source
CP C3-convertase (C4b2a) [4] = target: T1, CP C3-convertase (C4b2a); remark: listed apart in the source

T1 sequence (P0C0L4 757-1446 limits assumed, chain 1 of 4): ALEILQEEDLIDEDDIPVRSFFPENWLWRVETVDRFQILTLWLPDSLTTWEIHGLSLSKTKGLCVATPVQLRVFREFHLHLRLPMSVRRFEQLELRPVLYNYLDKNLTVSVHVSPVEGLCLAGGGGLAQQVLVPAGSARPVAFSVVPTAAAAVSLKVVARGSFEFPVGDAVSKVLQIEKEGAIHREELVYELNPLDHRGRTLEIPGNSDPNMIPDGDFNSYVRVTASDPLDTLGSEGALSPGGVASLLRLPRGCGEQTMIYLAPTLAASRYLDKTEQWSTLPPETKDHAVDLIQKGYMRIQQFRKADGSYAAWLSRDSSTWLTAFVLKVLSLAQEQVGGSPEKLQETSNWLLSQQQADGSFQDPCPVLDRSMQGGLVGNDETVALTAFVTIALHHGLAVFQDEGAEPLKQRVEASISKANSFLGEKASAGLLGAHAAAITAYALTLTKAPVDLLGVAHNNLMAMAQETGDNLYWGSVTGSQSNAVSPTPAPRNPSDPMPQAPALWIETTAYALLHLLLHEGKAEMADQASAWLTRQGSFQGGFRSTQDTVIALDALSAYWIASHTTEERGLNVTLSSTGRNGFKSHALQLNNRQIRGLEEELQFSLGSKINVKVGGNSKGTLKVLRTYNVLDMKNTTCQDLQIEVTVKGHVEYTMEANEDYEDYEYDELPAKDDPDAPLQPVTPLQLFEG
T1 sequence (P0C0L4 20-675 limits assumed, chain 2 of 4): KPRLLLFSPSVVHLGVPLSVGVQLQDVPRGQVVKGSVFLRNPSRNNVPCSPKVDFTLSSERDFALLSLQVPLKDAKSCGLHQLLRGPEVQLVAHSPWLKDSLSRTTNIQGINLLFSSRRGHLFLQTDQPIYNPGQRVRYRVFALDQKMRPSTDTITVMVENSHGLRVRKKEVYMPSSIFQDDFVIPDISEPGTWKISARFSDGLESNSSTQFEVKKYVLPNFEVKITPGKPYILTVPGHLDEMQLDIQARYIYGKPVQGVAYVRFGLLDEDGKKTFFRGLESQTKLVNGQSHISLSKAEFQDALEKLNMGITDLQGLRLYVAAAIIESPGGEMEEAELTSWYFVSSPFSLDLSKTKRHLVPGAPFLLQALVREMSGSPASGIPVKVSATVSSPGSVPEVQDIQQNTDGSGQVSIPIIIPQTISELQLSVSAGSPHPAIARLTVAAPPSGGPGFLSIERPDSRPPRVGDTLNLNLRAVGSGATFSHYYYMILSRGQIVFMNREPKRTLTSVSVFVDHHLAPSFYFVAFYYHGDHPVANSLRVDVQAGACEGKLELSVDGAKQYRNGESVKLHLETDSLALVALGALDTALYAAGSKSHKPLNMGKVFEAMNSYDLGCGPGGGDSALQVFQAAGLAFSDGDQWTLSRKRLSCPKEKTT
T1 sequence (P0C0L4 1454-1744 limits assumed, chain 3 of 4): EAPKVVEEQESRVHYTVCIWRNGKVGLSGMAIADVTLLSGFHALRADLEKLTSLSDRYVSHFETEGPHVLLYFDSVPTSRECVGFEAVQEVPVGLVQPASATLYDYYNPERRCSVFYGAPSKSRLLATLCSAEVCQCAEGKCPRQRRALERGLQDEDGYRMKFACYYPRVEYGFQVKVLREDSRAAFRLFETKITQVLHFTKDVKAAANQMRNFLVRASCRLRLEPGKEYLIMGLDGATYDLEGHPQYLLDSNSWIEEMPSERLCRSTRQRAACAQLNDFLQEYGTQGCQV
T1 sequence (P06681 244-752 limits assumed, chain 4 of 4): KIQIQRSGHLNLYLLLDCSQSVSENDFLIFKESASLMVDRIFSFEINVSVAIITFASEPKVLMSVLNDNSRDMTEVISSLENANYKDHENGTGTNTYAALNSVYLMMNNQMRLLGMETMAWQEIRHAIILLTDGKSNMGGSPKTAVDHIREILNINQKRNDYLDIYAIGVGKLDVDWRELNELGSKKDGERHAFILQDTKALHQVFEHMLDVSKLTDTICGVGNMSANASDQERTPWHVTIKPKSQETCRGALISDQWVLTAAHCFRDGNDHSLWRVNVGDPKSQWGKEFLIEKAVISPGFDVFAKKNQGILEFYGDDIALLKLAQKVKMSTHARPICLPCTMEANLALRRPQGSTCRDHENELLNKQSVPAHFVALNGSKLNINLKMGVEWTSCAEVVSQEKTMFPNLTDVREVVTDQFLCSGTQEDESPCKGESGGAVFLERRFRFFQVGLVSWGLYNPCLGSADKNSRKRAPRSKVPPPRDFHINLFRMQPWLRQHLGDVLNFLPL
Sequence of C4b (P0C0L4 757-1446 limits assumed, chain 1 of 3): as the sequence (P0C0L4 757-1446 limits assumed, chain 1 of 4) above
Sequence of C4b (P0C0L4 20-675 limits assumed, chain 2 of 3): as the sequence (P0C0L4 20-675 limits assumed, chain 2 of 4) above
Sequence of C4b (P0C0L4 1454-1744 limits assumed, chain 3 of 3): as the sequence (P0C0L4 1454-1744 limits assumed, chain 3 of 4) above
T2 sequence (P01024 23-667 limits assumed, chain 1 of 3): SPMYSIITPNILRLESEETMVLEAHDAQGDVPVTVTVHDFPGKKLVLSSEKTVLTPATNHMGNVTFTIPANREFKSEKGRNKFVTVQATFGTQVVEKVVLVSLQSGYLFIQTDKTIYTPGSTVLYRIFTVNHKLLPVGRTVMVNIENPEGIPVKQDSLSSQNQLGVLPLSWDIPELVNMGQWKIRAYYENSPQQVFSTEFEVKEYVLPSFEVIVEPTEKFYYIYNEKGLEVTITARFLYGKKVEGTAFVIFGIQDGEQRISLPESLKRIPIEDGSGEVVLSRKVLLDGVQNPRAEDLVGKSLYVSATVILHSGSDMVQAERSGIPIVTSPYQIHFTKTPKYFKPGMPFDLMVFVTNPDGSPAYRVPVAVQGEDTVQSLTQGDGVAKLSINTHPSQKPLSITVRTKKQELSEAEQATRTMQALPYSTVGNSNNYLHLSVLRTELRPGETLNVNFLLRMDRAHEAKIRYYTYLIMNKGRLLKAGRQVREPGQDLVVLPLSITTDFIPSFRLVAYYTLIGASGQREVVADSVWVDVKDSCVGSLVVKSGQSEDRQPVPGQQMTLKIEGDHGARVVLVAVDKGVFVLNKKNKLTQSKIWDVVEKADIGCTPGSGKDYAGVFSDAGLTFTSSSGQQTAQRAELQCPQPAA
T2 sequence (P01024 749-1663 limits assumed, chain 2 of 3): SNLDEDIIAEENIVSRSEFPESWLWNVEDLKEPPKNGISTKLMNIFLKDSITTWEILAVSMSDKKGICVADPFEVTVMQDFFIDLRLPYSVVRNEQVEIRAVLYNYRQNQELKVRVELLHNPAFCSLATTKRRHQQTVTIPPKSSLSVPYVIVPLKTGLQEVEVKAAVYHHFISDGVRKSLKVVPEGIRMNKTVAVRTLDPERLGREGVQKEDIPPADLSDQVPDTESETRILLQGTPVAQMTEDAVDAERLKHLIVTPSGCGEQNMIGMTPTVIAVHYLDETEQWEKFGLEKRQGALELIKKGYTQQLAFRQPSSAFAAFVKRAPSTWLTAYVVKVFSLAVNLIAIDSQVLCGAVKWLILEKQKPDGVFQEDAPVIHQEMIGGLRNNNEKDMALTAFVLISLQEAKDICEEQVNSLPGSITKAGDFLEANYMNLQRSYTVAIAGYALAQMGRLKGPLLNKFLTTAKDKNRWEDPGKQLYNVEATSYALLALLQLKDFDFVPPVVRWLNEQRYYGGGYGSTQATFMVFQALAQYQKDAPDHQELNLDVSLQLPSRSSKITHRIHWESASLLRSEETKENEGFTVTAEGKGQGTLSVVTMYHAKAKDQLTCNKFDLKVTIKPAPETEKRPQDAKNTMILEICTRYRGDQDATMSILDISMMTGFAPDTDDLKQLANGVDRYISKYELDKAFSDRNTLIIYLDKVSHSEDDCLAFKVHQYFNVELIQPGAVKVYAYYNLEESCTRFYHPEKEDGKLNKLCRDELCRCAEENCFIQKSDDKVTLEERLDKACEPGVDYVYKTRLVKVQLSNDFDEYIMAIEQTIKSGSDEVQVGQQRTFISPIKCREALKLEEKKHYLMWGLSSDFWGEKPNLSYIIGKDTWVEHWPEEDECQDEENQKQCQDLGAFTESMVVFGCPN
T2 sequence (P00751 260-764 limits assumed, chain 3 of 3): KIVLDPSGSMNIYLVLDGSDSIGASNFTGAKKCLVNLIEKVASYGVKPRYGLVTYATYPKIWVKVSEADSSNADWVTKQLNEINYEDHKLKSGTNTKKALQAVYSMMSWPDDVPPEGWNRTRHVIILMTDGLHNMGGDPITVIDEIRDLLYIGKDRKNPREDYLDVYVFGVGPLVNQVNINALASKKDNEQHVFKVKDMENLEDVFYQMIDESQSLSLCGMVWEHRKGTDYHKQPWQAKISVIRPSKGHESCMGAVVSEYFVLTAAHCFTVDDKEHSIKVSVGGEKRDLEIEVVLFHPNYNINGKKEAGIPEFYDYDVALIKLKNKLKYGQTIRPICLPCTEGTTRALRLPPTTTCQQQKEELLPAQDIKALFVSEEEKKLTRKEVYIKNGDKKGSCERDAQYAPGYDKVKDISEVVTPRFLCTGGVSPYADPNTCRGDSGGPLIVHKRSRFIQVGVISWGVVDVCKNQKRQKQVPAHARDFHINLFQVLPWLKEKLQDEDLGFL
Sequence of C3b (P01024 23-667 limits assumed, chain 1 of 2): as the sequence (P01024 23-667 limits assumed, chain 1 of 3) above
Sequence of C3b (P01024 749-1663 limits assumed, chain 2 of 2): as the sequence (P01024 749-1663 limits assumed, chain 2 of 3) above

Row | Binder | CP-DAA IC50 (CP C3-convertase (C4b2a) [1]) [µM] | Relative CP-DAA (CP C3-convertase (C4b2a) [1]) | AP-DAA IC50 (AP C3-convertase (C3bBb) [2]) | Relative AP-DAA (AP C3-convertase (C3bBb) [2]) | also measured
1 | D2D3M3M4 (Multi-4) (other) CEVPTRLNSASLKQPYITQNYFPVGTVVEYECRPGYRREPSLSPKLTCLQNLKWSTAVEFCKKKSCPNPGEIRNGQIDVPGGILFGATISFSCNTGYKLIGKTSSFCLISGSSVQWSDKLPICEKVLCTPPPKIKNGKHTFSEVEVFEYLDAVTYSCDPAPGPDPFSLIGESTIYCGDNSVWSRAAPECKVVKCRFPVVENGKQISGFGKKFYYKATVMFECDKGFYLDGSDTIVCDSNSTWDPPVPKCLKVL | 39.3 | 0.4 | > 0.01 µM | < 0.3 | C4b CFA: Time (min.) for 50% cleavage of C4B α′-chain (C4b): 5.5 min; Relative C4b CFA (C4b): 1.7; C3b CFA: Time (min.) for 50% cleavage of C3B α′-chain (C3b): 17.5 min; Relative C3b CFA (C3b): 0.25
2 | D2D3M3M4 (DAF-MCP chimera) (other) CEVPTRLNSASLKQPYITQNYFPVGTVVEYECRPGYRREPSLSPKLTCLQNLKWSTAVEFCKKKSCPNPGEIRNGQIDVPGGILFGATISFSCNTGYKLFGSTSSFCLISGSSVQWSDPLPECREIYCTPPPKIKNGKHTFSEVEVFEYLDAVTYSCDPAPGPDPFSLIGESTIYCGDNSVWSRAAPECKVVKCRFPVVENGKQISGFGKKFYYKATVMFECDKGFYLDGSDTIVCDSNSTWDPPVPKCLKVL |  |  | 0.0024 µM and 0.0021 µM |  | 
3 | Human MCP (M1-M4), membrane cofactor protein (other) CEEPPTFEAMELIGKPKPYYEIGERVDYKCKKGYFYIPPLATHTICDRNHTWLPVSDDACYRETCPYIRDPLNGQAVPANGTYEFGYQMHFICNEGYYLIGEEILYCELKGSVAIWSGKPPICEKVLCTPPPKIKNGKHTFSEVEVFEYLDAVTYSCDPAPGPDPFSLIGESTIYCGDNSVWSRAAPECKVVKCRFPVVENGKQISGFGKKFYYKATVMFECDKGFYLDGSDTIVCDSNSTWDPPVPKCLKVL |  |  |  |  | Relative C4b CFA (C4b): 1; Relative C3b CFA (C3b): 1
4 | D2M2-4 (DAF-MCP chimera with the DAF D2-D3 linker) (other) CEVPTRLNSASLKQPYITQNYFPVGTVVEYECRPGYRREPSLSPKLTCLQNLKWSTAVEFCKKKSCPYIRDPLNGQAVPANGTYEFGYQMHFICNEGYYLIGEEILYCELKGSVAIWSGKPPICEKVLCTPPPKIKNGKHTFSEVEVFEYLDAVTYSCDPAPGPDPFSLIGESTIYCGDNSVWSRAAPECKVVKCRFPVVENGKQISGFGKKFYYKATVMFECDKGFYLDGSDTIVCDSNSTWDPPVPKCLKVL | 457 | 0.03 | > 0.019 µM | < 0.1 | 
5 | D2M2-4 (E136Q) (D2) (other) CEVPTRLNSASLKQPYITQNYFPVGTVVEYECRPGYRRQPSLSPKLTCLQNLKWSTAVEFCKKKSCPYIRDPLNGQAVPANGTYEFGYQMHFICNEGYYLIGEEILYCELKGSVAIWSGKPPICEKVLCTPPPKIKNGKHTFSEVEVFEYLDAVTYSCDPAPGPDPFSLIGESTIYCGDNSVWSRAAPECKVVKCRFPVVENGKQISGFGKKFYYKATVMFECDKGFYLDGSDTIVCDSNSTWDPPVPKCLKVL |  |  |  |  | AP-DAA, fold increase compared to D2M2-4 (AP C3-convertase (C3bBb) [3]): 5.6 fold
6 | D2M2-4 (ML) (DAF-MCP chimera with the MCP M1-M2 linker YRET) (other) CEVPTRLNSASLKQPYITQNYFPVGTVVEYECRPGYRREPSLSPKLTCLQNLKWSTAVEFCYRETCPYIRDPLNGQAVPANGTYEFGYQMHFICNEGYYLIGEEILYCELKGSVAIWSGKPPICEKVLCTPPPKIKNGKHTFSEVEVFEYLDAVTYSCDPAPGPDPFSLIGESTIYCGDNSVWSRAAPECKVVKCRFPVVENGKQISGFGKKFYYKATVMFECDKGFYLDGSDTIVCDSNSTWDPPVPKCLKVL | > 1000 | < 0.01 | > 0.01 µM | < 0.1 | 
7 | D2M2-4 (L161K) (other) CEVPTRLNSASLKQPYITQNYFPVGTVVEYECRPGYRREPSLSPKLTCLQNLKWSTAVEFCKKKSCPYIRDPLNGQAVPANGTYEFGYQMHFICNEGYYLIGEEILYCELKGSVAIWSGKPPICEKVKCTPPPKIKNGKHTFSEVEVFEYLDAVTYSCDPAPGPDPFSLIGESTIYCGDNSVWSRAAPECKVVKCRFPVVENGKQISGFGKKFYYKATVMFECDKGFYLDGSDTIVCDSNSTWDPPVPKCLKVL |  |  |  |  | CP-DAA, fold increase (CP C3-convertase (C4b2a) [4]): ~2 fold; AP-DAA, fold gain compared to D2M2-4 (AP C3-convertase (C3bBb) [3]): 3.4 fold
8 | D2M2-4 (Y101N) (other) CEVPTRLNSASLKQPYITQNYFPVGTVVEYECRPGYRREPSLSPKLTCLQNLKWSTAVEFCKKKSCPNIRDPLNGQAVPANGTYEFGYQMHFICNEGYYLIGEEILYCELKGSVAIWSGKPPICEKVLCTPPPKIKNGKHTFSEVEVFEYLDAVTYSCDPAPGPDPFSLIGESTIYCGDNSVWSRAAPECKVVKCRFPVVENGKQISGFGKKFYYKATVMFECDKGFYLDGSDTIVCDSNSTWDPPVPKCLKVL |  |  |  |  | AP-DAA, fold increase compared to D2M2-4 (AP C3-convertase (C3bBb) [3]): 7.2 fold
9 | D2M2-4 (I134A) (other) CEVPTRLNSASLKQPYITQNYFPVGTVVEYECRPGYRREPSLSPKLTCLQNLKWSTAVEFCKKKSCPYIRDPLNGQAVPANGTYEFGYQMHFICNEGYYLAGEEILYCELKGSVAIWSGKPPICEKVLCTPPPKIKNGKHTFSEVEVFEYLDAVTYSCDPAPGPDPFSLIGESTIYCGDNSVWSRAAPECKVVKCRFPVVENGKQISGFGKKFYYKATVMFECDKGFYLDGSDTIVCDSNSTWDPPVPKCLKVL |  |  |  |  | CP-DAA, fold increase (CP C3-convertase (C4b2a) [4]): ~2 fold; AP-DAA, fold gain compared to D2M2-4 (AP C3-convertase (C3bBb) [3]): 6.7 fold
10 | Human DAF (D1-D4), decay-accelerating factor (other) CGLPPDVPNAQPALEGRTSFPEDTVITYKCEESFVKIPGEKDSVICLKGSQWSDIEEFCNRSCEVPTRLNSASLKQPYITQNYFPVGTVVEYECRPGYRREPSLSPKLTCLQNLKWSTAVEFCKKKSCPNPGEIRNGQIDVPGGILFGATISFSCNTGYKLFGSTSSFCLISGSSVQWSDPLPECREIYCPAPPQIDNGIIQGERDHYGYRQSVTYACNKGFTMIGEHSIYCTVNNDEGEWSGPPPECRGKS |  | 1 | 0.0031 µM and 0.0023 µM and 0.0011 µM |  | 
